In the test the target is T1, SDS22 (tag-free, purified) (human, UniProt Q15435 1-360).
T1 construct: SDS22 (PPP1R7), human, wild type; also called SDS22-WT; untagged SDS22; source: HEK293T, transiently transfected; EGFP-SDS22 purified on EGFP-trap beads, tag-free after TEV protease
T1 sequence (looked up): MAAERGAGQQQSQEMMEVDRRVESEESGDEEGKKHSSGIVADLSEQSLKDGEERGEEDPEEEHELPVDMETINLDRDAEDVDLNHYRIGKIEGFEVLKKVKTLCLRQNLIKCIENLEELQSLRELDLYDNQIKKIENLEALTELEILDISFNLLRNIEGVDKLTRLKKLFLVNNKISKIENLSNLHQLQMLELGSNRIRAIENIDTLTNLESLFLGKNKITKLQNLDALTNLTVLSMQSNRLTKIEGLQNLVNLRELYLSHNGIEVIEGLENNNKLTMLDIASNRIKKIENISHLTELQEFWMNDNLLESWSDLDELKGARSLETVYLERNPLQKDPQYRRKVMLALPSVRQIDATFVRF
Briefly: ITC; 5 μM SDS22 in the cell titrated with 50 μM His-I3 (20 injections), 22 °C, MicroCal iTC200; binding curves not saturated. Conditions: both partners purified.

B1: His-I3 (natural protein, human, UniProt O60927 1-126, looked up)
chain: MAEAGAGLSETVTETTVTVTTEPENRSLTIKLRKRKPEKKVEWTSDTVDNEHMGRRSSKCCCIYEKPRAFGESSTESDEEEEEGCGHTHCVRGHRKGRRRATLGPTPTTPPQPPDPSQPPPGPMQH
notes: source: E. coli BL21 (pET16b), purified (Ni2+-Sepharose)
For the molecule B1, the Kd came out at 7.6 µM.

What is called Kd is the free concentration of one partner at which half of the binding sites on the other are occupied at equilibrium, for simple one-to-one binding. Lower therefore signals a tighter complex.
